For 27 molecules, Kd results are on record in article PMC10786891, “Massively parallel profiling of RNA-targeting CRISPR-Cas13d”.

By Kd is commonly meant a measure of binding affinity in units of concentration.

T1: EsCas13d, nuclease-dead (Eubacterium siraeum, UniProt B0MS50, R295A;H300A;R849A;H854A)
T1 sequence: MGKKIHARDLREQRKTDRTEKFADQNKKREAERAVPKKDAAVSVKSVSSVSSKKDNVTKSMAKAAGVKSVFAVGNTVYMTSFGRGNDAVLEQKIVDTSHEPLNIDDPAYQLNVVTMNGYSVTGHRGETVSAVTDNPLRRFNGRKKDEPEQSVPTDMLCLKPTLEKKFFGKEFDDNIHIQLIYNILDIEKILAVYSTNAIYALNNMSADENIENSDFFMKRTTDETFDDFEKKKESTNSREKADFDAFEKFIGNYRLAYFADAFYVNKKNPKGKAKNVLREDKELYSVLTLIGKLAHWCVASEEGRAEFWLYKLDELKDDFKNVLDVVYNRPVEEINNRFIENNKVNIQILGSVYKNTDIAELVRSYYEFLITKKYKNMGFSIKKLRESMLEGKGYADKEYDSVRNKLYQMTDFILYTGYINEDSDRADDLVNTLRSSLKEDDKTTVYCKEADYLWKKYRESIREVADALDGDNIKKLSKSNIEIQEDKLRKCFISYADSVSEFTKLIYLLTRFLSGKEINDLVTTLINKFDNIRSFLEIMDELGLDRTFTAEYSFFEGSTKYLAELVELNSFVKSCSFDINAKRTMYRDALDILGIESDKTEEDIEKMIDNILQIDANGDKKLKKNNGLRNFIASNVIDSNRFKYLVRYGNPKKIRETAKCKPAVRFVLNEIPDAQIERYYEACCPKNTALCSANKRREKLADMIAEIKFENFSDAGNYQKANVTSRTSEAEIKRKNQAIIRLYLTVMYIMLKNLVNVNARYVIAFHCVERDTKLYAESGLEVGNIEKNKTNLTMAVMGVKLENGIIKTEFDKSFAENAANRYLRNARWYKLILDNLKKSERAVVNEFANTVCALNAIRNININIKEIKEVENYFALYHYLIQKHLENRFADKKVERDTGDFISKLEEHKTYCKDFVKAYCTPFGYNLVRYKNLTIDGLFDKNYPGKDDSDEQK

B1: target 1 insC 3' of 19,insU 3' of 7 (mixed)
RNA 1: CACCCGUGCAAAAAUGCAGGGGUCUAAAACUGAGCGGAUAACCUCUCUAUGG
RNA 2: GGGAAUGGAUCCACAUCUACGAAUUCGUACCAUCAGAGAGGUUAUCUCGCUCACCGAGAUCGGAAGAGCACACGU
B2: target 1 insC 3' of 19,insA 3' of 2 (mixed)
RNA 1: CACCCGUGCAAAAAUGCAGGGGUCUAAAACUGAGCGGAUAACCUCUCUAUGG
RNA 2: GGGAAUGGAUCCACAUCUACGAAUUCGUACCAUCAGAGAGGUUAUCCGCUCAACCGAGAUCGGAAGAGCACACGU
B3: target 1 U19G,C22A (mixed)
RNA 1: CACCCGUGCAAAAAUGCAGGGGUCUAAAACUGAGCGGAUAACCUCUCUAUGG
RNA 2: GGGAAUGGAUCCACAUCUACGAAUUCGUAACAGAGAGAGGUUAUCCGCUCACCGAGAUCGGAAGAGCACACGU
B4: target 1 C4A,U19C (mixed)
RNA 1: CACCCGUGCAAAAAUGCAGGGGUCUAAAACUGAGCGGAUAACCUCUCUAUGG
RNA 2: GGGAAUGGAUCCACAUCUACGAAUUCGUACCACAGAGAGGUUAUCCGAUCACCGAGAUCGGAAGAGCACACGU
B5: target 1 insC 3' of 11,insA 3' of 4 (mixed)
RNA 1: CACCCGUGCAAAAAUGCAGGGGUCUAAAACUGAGCGGAUAACCUCUCUAUGG
RNA 2: GGGAAUGGAUCCACAUCUACGAAUUCGUACCAUAGAGAGGUCUAUCCGCAUCACCGAGAUCGGAAGAGCACACGU
B6: target 1 C6U,U8C (mixed)
RNA 1: CACCCGUGCAAAAAUGCAGGGGUCUAAAACUGAGCGGAUAACCUCUCUAUGG
RNA 2: GGGAAUGGAUCCACAUCUACGAAUUCGUACCAUAGAGAGGUUACCUGCUCACCGAGAUCGGAAGAGCACACGU
B7: target 1 G5C,C6A (mixed)
RNA 1: CACCCGUGCAAAAAUGCAGGGGUCUAAAACUGAGCGGAUAACCUCUCUAUGG
RNA 2: GGGAAUGGAUCCACAUCUACGAAUUCGUACCAUAGAGAGGUUAUCACCUCACCGAGAUCGGAAGAGCACACGU
B8: target 1 U10C,C22U (mixed)
RNA 1: CACCCGUGCAAAAAUGCAGGGGUCUAAAACUGAGCGGAUAACCUCUCUAUGG
RNA 2: GGGAAUGGAUCCACAUCUACGAAUUCGUAUCAUAGAGAGGUCAUCCGCUCACCGAGAUCGGAAGAGCACACGU
B9: target 1 C2A,U10C (mixed)
RNA 1: CACCCGUGCAAAAAUGCAGGGGUCUAAAACUGAGCGGAUAACCUCUCUAUGG
RNA 2: GGGAAUGGAUCCACAUCUACGAAUUCGUACCAUAGAGAGGUCAUCCGCUAACCGAGAUCGGAAGAGCACACGU
B10: target 1 C4G,C21U (mixed)
RNA 1: CACCCGUGCAAAAAUGCAGGGGUCUAAAACUGAGCGGAUAACCUCUCUAUGG
RNA 2: GGGAAUGGAUCCACAUCUACGAAUUCGUACUAUAGAGAGGUUAUCCGGUCACCGAGAUCGGAAGAGCACACGU
B11: target 1 insC 3' of 19,insG 3' of 1 (mixed)
RNA 1: CACCCGUGCAAAAAUGCAGGGGUCUAAAACUGAGCGGAUAACCUCUCUAUGG
RNA 2: GGGAAUGGAUCCACAUCUACGAAUUCGUACCAUCAGAGAGGUUAUCCGCUCAGCCGAGAUCGGAAGAGCACACGU
B12: target 1 insA 3' of 19,insA 3' of 12 (mixed)
RNA 1: CACCCGUGCAAAAAUGCAGGGGUCUAAAACUGAGCGGAUAACCUCUCUAUGG
RNA 2: GGGAAUGGAUCCACAUCUACGAAUUCGUACCAUAAGAGAGGAUUAUCCGCUCACCGAGAUCGGAAGAGCACACGU
B13: target 1 C2U,C6G (mixed)
RNA 1: CACCCGUGCAAAAAUGCAGGGGUCUAAAACUGAGCGGAUAACCUCUCUAUGG
RNA 2: GGGAAUGGAUCCACAUCUACGAAUUCGUACCAUAGAGAGGUUAUCGGCUUACCGAGAUCGGAAGAGCACACGU
B14: target 1 del4,del13 (mixed)
RNA 1: CACCCGUGCAAAAAUGCAGGGGUCUAAAACUGAGCGGAUAACCUCUCUAUGG
RNA 2: GGGAAUGGAUCCACAUCUACGAAUUCGUACCAUAGAGAGUUAUCCGUCACCGAGAUCGGAAGAGCACACGU
B15: target 1 G5C,G13A (mixed)
RNA 1: CACCCGUGCAAAAAUGCAGGGGUCUAAAACUGAGCGGAUAACCUCUCUAUGG
RNA 2: GGGAAUGGAUCCACAUCUACGAAUUCGUACCAUAGAGAAGUUAUCCCCUCACCGAGAUCGGAAGAGCACACGU
B16: target 1 A9G,A16U (mixed)
RNA 1: CACCCGUGCAAAAAUGCAGGGGUCUAAAACUGAGCGGAUAACCUCUCUAUGG
RNA 2: GGGAAUGGAUCCACAUCUACGAAUUCGUACCAUAGUGAGGUUGUCCGCUCACCGAGAUCGGAAGAGCACACGU
B17: target 1 C7G,A9G (mixed)
RNA 1: CACCCGUGCAAAAAUGCAGGGGUCUAAAACUGAGCGGAUAACCUCUCUAUGG
RNA 2: GGGAAUGGAUCCACAUCUACGAAUUCGUACCAUAGAGAGGUUGUGCGCUCACCGAGAUCGGAAGAGCACACGU
B18: target 1 insU 3' of 6,insU 3' of 5 (mixed)
RNA 1: CACCCGUGCAAAAAUGCAGGGGUCUAAAACUGAGCGGAUAACCUCUCUAUGG
RNA 2: GGGAAUGGAUCCACAUCUACGAAUUCGUACCAUAGAGAGGUUAUCCUGUCUCACCGAGAUCGGAAGAGCACACGU
B19: target 1 complement block 8-11 (mixed)
RNA 1: CACCCGUGCAAAAAUGCAGGGGUCUAAAACUGAGCGGAUAACCUCUCUAUGG
RNA 2: GGGAAUGGAUCCACAUCUACGAAUUCGUACCAUAGAGAGGAAUACCGCUCACCGAGAUCGGAAGAGCACACGU
B20: target 1 insC 3' of 15,insG 3' of 10 (mixed)
RNA 1: CACCCGUGCAAAAAUGCAGGGGUCUAAAACUGAGCGGAUAACCUCUCUAUGG
RNA 2: GGGAAUGGAUCCACAUCUACGAAUUCGUACCAUAGAGCAGGUUGAUCCGCUCACCGAGAUCGGAAGAGCACACGU
B21: target 1 A18C,C21U (mixed)
RNA 1: CACCCGUGCAAAAAUGCAGGGGUCUAAAACUGAGCGGAUAACCUCUCUAUGG
RNA 2: GGGAAUGGAUCCACAUCUACGAAUUCGUACUAUCGAGAGGUUAUCCGCUCACCGAGAUCGGAAGAGCACACGU
B22: target 1 C2G,U10C (mixed)
RNA 1: CACCCGUGCAAAAAUGCAGGGGUCUAAAACUGAGCGGAUAACCUCUCUAUGG
RNA 2: GGGAAUGGAUCCACAUCUACGAAUUCGUACCAUAGAGAGGUCAUCCGCUGACCGAGAUCGGAAGAGCACACGU
B23: target 1 G5C,C7U (mixed)
RNA 1: CACCCGUGCAAAAAUGCAGGGGUCUAAAACUGAGCGGAUAACCUCUCUAUGG
RNA 2: GGGAAUGGAUCCACAUCUACGAAUUCGUACCAUAGAGAGGUUAUUCCCUCACCGAGAUCGGAAGAGCACACGU
B24: target 1 del14 (mixed)
RNA 1: CACCCGUGCAAAAAUGCAGGGGUCUAAAACUGAGCGGAUAACCUCUCUAUGG
RNA 2: GGGAAUGGAUCCACAUCUACGAAUUCGUACCAUAGAGGGUUAUCCGCUCACCGAGAUCGGAAGAGCACACGU
B25: target 1 insC 3' of 19,insC 3' of 1 (mixed)
RNA 1: CACCCGUGCAAAAAUGCAGGGGUCUAAAACUGAGCGGAUAACCUCUCUAUGG
RNA 2: GGGAAUGGAUCCACAUCUACGAAUUCGUACCAUCAGAGAGGUUAUCCGCUCACCCGAGAUCGGAAGAGCACACGU
B26: target 1 insU 3' of 6,insU 3' of 2 (mixed)
RNA 1: CACCCGUGCAAAAAUGCAGGGGUCUAAAACUGAGCGGAUAACCUCUCUAUGG
RNA 2: GGGAAUGGAUCCACAUCUACGAAUUCGUACCAUAGAGAGGUUAUCCUGCUCUACCGAGAUCGGAAGAGCACACGU
B27: target 1 complement block 18-20 (mixed)
RNA 1: CACCCGUGCAAAAAUGCAGGGGUCUAAAACUGAGCGGAUAACCUCUCUAUGG
RNA 2: GGGAAUGGAUCCACAUCUACGAAUUCGUACCUAUGAGAGGUUAUCCGCUCACCGAGAUCGGAAGAGCACACGU

The target of the data set is T1, EsCas13d, nuclease-dead. The experiment in a line: crRNA (strand 1, pre-loaded); Mg2+; 40 mM Tris-HCl pH 7.5, 150 mM NaCl, 6 mM MgCl2, 1 mM DTT, 0.1% Tween-20, 0.2 mg/ml BSA; 25 C; 10 min per concentration, then washed. The settings on record: tags: His6-TwinStrep-SUMO cleaved; N-terminal SNAP kept (SNAP-Surface 488); label: 3' end held by stalled T7 RNA polymerase.
B1 had a Kd of 62 ± 7 nM.
In the case of B2, binding was characterised by a dissociation constant (Kd) of 33.8 ± 3.1 nM.
Take B3: the affinity, expressed as Kd, was 54 ± 9 nM.
In the case of B4 it was about 36 nM; in that of B5, 21.1 ± 2 nM; in that of B6, 15.6 ± 0.5 nM.
With B7 the figure was 11.3 ± 0.8 nM.
With B8 the figure was 56 ± 8 nM; with B9, 17.8 ± 0.7 nM.
Turning to B10, the Kd is 3.5 ± 0.5 nM.
Molecule B11 came in with a Kd of 31 ± 4 nM. Against the preceding molecule, the Kd is about 8.9-fold higher.
With B12 the figure was 54 ± 5 nM.
In the case of B13 it was 7.9 ± 0.3 nM; in that of B14, 16.5 ± 1.4 nM.
With B15 the figure was 5.8 ± 0.4 nM; with B16, 82 ± 27 nM; with B17, 14.5 ± 0.8 nM.
In the case of B18, binding was characterised by a dissociation constant (Kd) of 14.3 ± 0.6 nM.
With B19 the figure was 18.2 ± 0.8 nM; with B20, 24.6 ± 1.8 nM; with B21, 7.48 ± 0.31 nM.
With B22 the figure was 5.45 ± 0.29 nM; with B23, 33 ± 6 nM; with B24, 12.1 ± 0.9 nM.
With B25 the figure was 26.4 ± 3 nM; with B26, 17 ± 1.6 nM.
The molecule B27 yielded a Kd of 57 ± 7 nM.
